The text below walks through data of patent US20230047413A1 (Janssen / Centocor, published 2023).

In general, Kd refers to the equilibrium constant for the complex coming apart. Low values mean tighter binding, high ones weaker binding. In general, koff refers to the first-order rate constant of dissociation. The term kon denotes the rate constant with which the complex forms. The low end stands for slower complex formation, the high end for faster complex formation.

The target in one test is T1, Peptide-1 (human, phosphothreonine 212, phosphoserine 214, phosphothreonine 217 (tau 2N4R numbering); short chain biotin (SCBiot) and dPEG4 at the N-terminus; amide at the C-terminus).
T1 construct: also called tau peptide phosphorylated at T212/S214/T217
T1 sequence (peptide, as listed by the source): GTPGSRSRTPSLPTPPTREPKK
Description: SPR ProteOn, peptide captured, Fab as analyte; range of n=2; Peptide-1 (pT212/pS214/pT217); lower end of n=2 range. As to the method: (§1) The binding affinity of PT3 Fab towards each of the fourteen tau phosphopeptides shown in Table 6 was assessed by surface plasmon resonance (SPR) using a Bio-Rad ProteOn XPR36. Peptides were synthesized by standard chemical methods (New England Peptide) with short-chain biotin and a PEG4 moiety at the N-terminus. Biotinylated peptide was captured on a neutravidin-coated NLC biosensor chip and PT3 Fab was flowed over the surface to measure kinetic parameters.
(§2) All experiments were performed at 25° C. using phosphate buffered saline, pH 7.4, 0.005% Tween 20 (PBST) as both running buffer and sample dilution buffer. Prior to running samples, the NLC chip was conditioned by running PBST over the chip surface for 1 h. Approximately 5-10 RU of peptide was captured on the chip surface by diluting peptide to 10 ng/mL in PBST and injecting over the flow channels at 30 μL/min for 100 s. Serial dilutions of PT3 Fab (1.1-90 nM) were analyzed and, with the exception of Peptide-8, each concentration was measured in duplicate. After capture of peptides, the antibody titration was injected at 60 μL/min for 3 minutes (association phase), followed by 300 s of buffer only (dissociation phase).
(§3) The data were double referenced by subtraction of the interspot response and the curves generated by the buffer-only injection. […] The data were analyzed using a simple Langmuir 1:1 binding model.

Test [1] addresses T2, Peptide-6 (human, phosphothreonine 217 (tau 2N4R numbering); SCBiot and dPEG4 at the N-terminus; amide at the C-terminus). Description: SPR ProteOn, peptide captured, Fab as analyte; range of n=2; upper end of n=2 range. As to the method:
as §1, §2
(§4) The data were double referenced by subtraction of the interspot response and the curves generated by the buffer-only injection. The chip surface was regenerated using a single injection of 0.85% phosphoric acid at 30 μL/min for 100 s contact time, followed by four injections of running buffer before the next antibody titration injection. The data processing and kinetic analysis were done using the instrument software. The data were analyzed using a simple Langmuir 1:1 binding model.

The target in a further test is Peptide-3 (human, phosphoserine 214, phosphothreonine 217 (tau 2N4R numbering); SCBiot and dPEG4 at the N-terminus; amide at the C-terminus). Description: SPR ProteOn, peptide captured, Fab as analyte; Peptide-3, phosphorylated at 214/217; n=3. The procedure:
as §1, §2, §3

Test [2] addresses T3, Peptide-4 (human, phosphoserine 210, phosphothreonine 217 (tau 2N4R numbering); SCBiot and dPEG4 at the N-terminus; amide at the C-terminus). The test can be described thus: SPR ProteOn, peptide captured, Fab as analyte; Peptide-4, phosphorylated at 210/217. As to the method: as §1, §2, §3
Another test deals with Peptide-5 (human, phosphoserine 210, phosphoserine 214, phosphothreonine 217 (tau 2N4R numbering); SCBiot and dPEG4 at the N-terminus; amide at the C-terminus). Description: SPR ProteOn, peptide captured, Fab as analyte; range of n=2; lower end of n=2 range. As to the method:
as §1, §2, §4

The target of a further test is Peptide-7 (human, phosphothreonine 212, phosphoserine 214 (tau 2N4R numbering); SCBiot and dPEG4 at the N-terminus; amide at the C-terminus). The description is as above. As to the method:
as §1, §2, §4

Test [3] has as its target T2, Peptide-6. The test is described as above. The procedure:
as §1, §2, §4

Test [4] deals with T4, Peptide-2 (human, phosphothreonine 212, phosphothreonine 217 (tau 2N4R numbering); short chain biotin (SCBiot) and dPEG4 at the N-terminus; amide at the C-terminus).
T4 construct: also called pT212/pT217-tau peptide (Peptide-2)
The test is described as above. As to the method:
as §1, §2, §4

Test [5] addresses T3, Peptide-4. The description is as above. As to the method: as §1, §2, §4
The target of test [6] is T2, Peptide-6. The test can be described thus: SPR ProteOn, peptide captured, Fab as analyte; Peptide-6, phosphorylated at 217 only. As to the method:
as §1, §2, §3

Test [7] addresses T4, Peptide-2. The test can be described thus: SPR ProteOn, peptide captured, Fab as analyte; range of n=2. As to the method: (§5) A subset of HFA-PT3 monoclonal antibody variants, selected based on biophysical characterization and ELISA binding to PHF, were analyzed by Surface Plasmon Resonance (SPR) with a ProteOn XPR36 for binding to the following phosphopeptides: pT212/pT217-tau peptide (Peptide-2, SEQ ID NO: 48) and pT212-tau peptide (Peptide-8, SEQ ID NO: 54). All experiments were performed at 25° C. using PBST, pH 7.4, (Bio-Rad Cat#176-2720) as both running buffer and sample dilution buffer.
(§6) Fab/peptide binding. Biotinylated peptide was captured on a neutravidin-coated NLC biosensor chip pre-conditioned with PBST, and Fab was flowed over the surface to measure kinetic parameters. Approximately 5-10 RU of peptide was captured on the chip surface by diluting peptide to 10 ng/mL in PBST and injecting over the flow channels at 30 μL/min for 100 s. Serial dilutions of PT3 Fab (1.1 nM to 90 nM) were injected at 60 μL/min for 3 minutes (association phase), followed by 300 s of buffer only (dissociation phase).
(§7) Data were double referenced by subtraction of the interspot response, and the curves generated by the buffer only injection. The chip surface was regenerated with 0.85% phosphoric acid, followed by PBST injection before the next antibody titration injection. Data processing and analysis were performed using instrument software. The data were fit using a simple Langmuir 1:1 binding model.

Test [8] concerns the target T4, Peptide-2. The test can be described thus: SPR ProteOn, peptide captured, Fab as analyte. The procedure: as §5, §6, §7

Values joined by “and” are separate entries in the source; they are usually repeats but may differ in a detail not shown here. Identical values can stand only once.

B1: PT3 Fab (B187) (Fab, V domains shown)
VH: EVKLVESGGDLVKPGGSLKLSCAASGFTFSSYAMSWVRQNPEKRLEWVASISKGGNTYYPNSVKGRFTISRDNARNILYLQMSSLRSEDTALYYCARGWGDYGWFAYWGQVTLVTVSA
VL: DIKMTQSPSSMYASLGERVTITCKASQDINRYLNWFQQKPGKSPKTLIYRANRLLDGVPSRFSGSGSGQDYSLTISSLDYEDMGIYYCLQYDEFPLTFGDGTKLELK
notes: Chimeric Fab: mouse variable regions, human IgG1/kappa constant region, 6xHis tag at the C-terminus of the heavy chain; also called mouse parental Fab of PT3
On to B1, for which the Kd with Peptide-1 was 0.14 to 0.38 nM; with Peptide-3 it was 5.57 nM; with Peptide-4 [2], 6.6 nM; with Peptide-6 [6], 11.4 nM. Further, the koff is 0.00625 s⁻¹ with Peptide-6 [1]; 0.00569 s⁻¹ with Peptide-5; 0.00549 s⁻¹ with Peptide-7; 0.00606 s⁻¹ with Peptide-6 [3]; 0.00619 s⁻¹ with Peptide-4 [5]; 4.93e-05 s⁻¹ and 7.84e-05 s⁻¹ with Peptide-2 [7]. This molecule also showed a koff with Peptide-2 [8] of 6.39e-05 s⁻¹. For the same molecule, the kon came out at 558000 M⁻¹ s⁻¹ with Peptide-6 [1]; 545000 M⁻¹ s⁻¹ with Peptide-5; 357000 M⁻¹ s⁻¹ with Peptide-7; 524000 M⁻¹ s⁻¹ with Peptide-6 [3]; 546000 M⁻¹ s⁻¹ with Peptide-2 [4]; 922000 M⁻¹ s⁻¹ in the test with Peptide-4 [5]. Moreover, the kon in the test with Peptide-2 [7] is 491000 M⁻¹ s⁻¹ and 1.06e+06 M⁻¹ s⁻¹; in the test with Peptide-2 [8], 776000 M⁻¹ s⁻¹.
